Laboratory results reported in patent US7638295B2, “Assays for identifying modulators of the hydroxylation of ankyrin repeat proteins by 2-oxoglutarate dependent oxygenase and methods of using the same” (priority 2004, dated 2009).

Assays:
FIH [1] = target: T1, FIH (Homo sapiens, UniProt Q9NWT6); assay: FIH assay: decarboxylation of radiolabelled 2OG stimulated by substrate; assay type: biochemical; settings: for Activity + FIH (relative to synthetic HIF1alphaCAD): ankyrin peptide substrates, CAD standard peptide = 100; for % activity relative to GST HIF-1α 786-826: substrate incubated with FIH, ascorbate, 2OG, Fe, catalase, 50 mM Tris-HCl pH 7.5, 37° C., 20 minutes; for Stimulation of decarboxylation of 2OG by substrate: recombinant FIH (>95% pure) incubated with each peptide
T1 construct: made in house
T1 sequence (Q9NWT6 whole entry): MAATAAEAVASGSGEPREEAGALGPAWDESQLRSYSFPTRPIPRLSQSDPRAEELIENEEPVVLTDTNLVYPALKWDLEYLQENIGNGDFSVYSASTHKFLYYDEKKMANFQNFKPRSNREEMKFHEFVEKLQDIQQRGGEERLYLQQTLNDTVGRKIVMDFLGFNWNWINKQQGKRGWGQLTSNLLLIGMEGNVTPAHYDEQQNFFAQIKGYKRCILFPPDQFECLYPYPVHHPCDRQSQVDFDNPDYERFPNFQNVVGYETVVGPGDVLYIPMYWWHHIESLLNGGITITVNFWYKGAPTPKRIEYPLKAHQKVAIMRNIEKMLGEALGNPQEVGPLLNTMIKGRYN
Protocol: The peptides shown in Table 1 were tested as potential substrates with purified FIH. The proposed sites of asparaginyl hydroxylation are highlighted in the Table.
In addition p105 ARD and IkappaB-alpha were also assayed as substrates. The substrates were assayed for decarboxylation of 2OG using radiolabelled 2OG as reported in Hewitson et al., J. Biol. Chem. (2002) 277 26351-26355. FIH was incubated with […] of each substrate together with ascorbate, 2OG, Fe and catalase in 50 mM Tris-HCl, pH 7.5 at 37° C. for 20 minutes.
Highly purified (>95% pure) recombinant FIH was incubated individually with each of the p105, IkappaB-alpha and FEM-1 peptides as potential substrates using an assay that measures decarboxylation of 2OG. […] Mutation of the proposed asparaginyl residue to be hydroxylated by FIH in p105 ARD to an alanine residue led to a substantial decrease in 2OG turnover. Incubation of FIH with IkappaB-alpha under standard assay conditions also stimulated turnover to a similar extent as observed for p105 ARD (Table 2).

FIH [2] = target: T1, FIH; assay: LC-MS analysis of peptide substrates after incubation with FIH; assay type: biochemical; settings: after incubation with FIH under standard assay conditions
Protocol: A Jupiter C4 HPLC column (15 cm×4.6 mm) was used to purify the substrate peptides following incubation with FIH using a linear gradient of 5-95% acetonitrile/0.05% formic acid at a flow rate of 1 ml/min. The eluate from the column was analysed by a MICROMASS™ ZMD quadrupole mass spectrometer in positive mode.
(§1) To check for direct peptide substrate hydroxylation, assay mixtures with each of the peptide substrates were analysed by both NMR and LC-MS.

[3] = system: 2-OG dependent oxygenases; assay: Assays in which 3-fluoro 2-OG replaces 2-OG as co-substrate; assay type: biochemical; settings: compound replaces 2-OG under analogous conditions
Excerpt: [drawing 5] where each R^1, which are the same or different, is as defined above; R^11 represents OH or R^10NH where R^10 is HO, R^1CO or HOOC(X)x wherein R^11 is as defined above, x is 0 or 1 and X is R^1R^1C wherein each R^1, which are the same or different, is as defined above; or R^10 is an amino acid residue H2N(R^1R^1C)CO— wherein each R^1, which are the same or different, is as defined above; n is 1 or 2 and R^12 is H or straight or branched C1 to C6 alkyl; or a salt thereof. Typically X is CH2 or CHOH. Another aspect of the invention concerns analogues of 2-OG that act as improved (relative to 2-OG) co-substrates for the 2-OG dependent oxygenases. Such a compound is 3-fluoro 2-OG.

2-OG oxygenases = settings: no test described in this patent; cited from earlier work
FIH [4] = target: T1, FIH; assay: 2D-NMR of peptides after incubation with FIH; assay type: biochemical; settings: standard assay conditions
Protocol: Both the FEM-1 and IkappaB-alpha peptides (2 mg) were incubated with FIH under standard assay conditions. Peptides were purified from the assay mixture using a Jupiter C4 HPLC column (15 cm×4.6 mm) with a linear gradient of 5-95% acetonitrile. Peptides were lyophilised and then redissolved in neat ^2H2O containing 1,4-dioxan as the internal chemical shift reference (^1H 3.750, ^13C 67.80 p.p.m.). NMR spectra were obtained using a Bruker Avance DRX500 equipped with an inverse-broadband pulsed-field gradient probe.
as §1

FIH [5] = target: T1, FIH; assay: Tryptic digest and MALDI-TOF mass spectrometry after incubation with FIH; assay type: biochemical; settings: incubated with FIH under standard assay conditions, then tryptic digestion; linear and reflectron mode
Protocol: For in-gel digests, gel pieces were incubated with […] in 20 mM ammonium bicarbonate and incubated at 37° C. for 16 hrs. For solution digests, after incubation with FIH under standard assay conditions, a 25 μM sample of substrate was removed from the assay, combined with 2.5 μM trypsin in 25 mM ammonium bicarbonate and incubated at room temperature for 8 hours.
Both in vitro and in vivo produced p105 samples were analysed using an Ettan™ MALDI-ToF Pro mass spectrometer in reflectron mode (Amersham Biosciences) with ANG III and hACTH peptides as internal standards. Tryptic fragments of in vitro produced IkappaB-alpha were analysed using a MALDI-TOF 2T mass spectrometer (MICROMASS™) in reflectron mode using Substance P, hACTH and insulin (B chain, oxidized) calibration standards.
Recombinant IκB-α was incubated with FIH under standard assay conditions followed by tryptic digestion. The resulting tryptic fragments were analysed using both linear and reflectron mode MALDI-TOF mass spectrometry.

In the case of “2-5A-d-R: fragment of 2-5A-d-R, VEVLKILLDEMGADVNACDN (SEQ ID NO: 16) (listed as Homo sapiens)”, the “Activity + FIH (relative to synthetic HIF1alphaCAD)” value (FIH [1]) is reported as 27.8 and the “Hydroxylation of peptide observed by LC-MS analysis” value (“Hydroxylation of peptide observed” for short) (FIH [2]) is reported as “Yes”.

In the case of O=C(O)CC(F)C(=O)C(=O)O (stereo not drawn) [3-fluoro 2-OG, 3-fluoro-2-oxoglutaric acid], the “Level of asparagine hydroxylation as co-substrate compared with 2-OG” value [3] is reported as “higher level of asparagine hydroxylation”.

In the case of O=C(O)CC1CC(=O)N(O)C1=O (stereo not drawn) [Is52, (1-hydroxy-2,5-dioxo-pyrrolidin-3-yl) acetic acid], the “Activity (in words)” value (2-OG oxygenases) is given as “highly active”.

In the case of “CAD: HIF C-terminal transactivation domain standard peptide DESGLPQLTSYDCEVNAPI (SEQ ID NO: 11) (listed as Homo sapiens) [reference compound]”, the “Activity + FIH (relative to synthetic HIF1alphaCAD)” value (FIH [1]) is reported as 100, the “% activity relative to GST HIF-1α 786-826” value (FIH [1]) is reported as 75% and the “Hydroxylation of peptide observed” value (FIH [2]) is reported as “Yes”.

In the case of “FEM-1 21 mer: fragment of FEM-1, NALVTKLLLDCGAEVNAVDNE (SEQ ID NO: 3) (listed as Homo sapiens)”, the “Stimulation of decarboxylation of 2OG by substrate” value (from here on “Stimulation”) (FIH [1]) is reported as “roughly equivalent to HIF-1α CAD”, the “% activity relative to GST HIF-1α 786-826” value (FIH [1]) is reported as 89% and the “Hydroxylation of peptide observed” value (FIH [2]) is reported as “hydroxylated”. The “2D-NMR spectra of peptide after incubation with FIH” value (FIH [4]) was “consistent with asparaginyl hydroxylation”.

With “FGIF: fragment of FGIF, NTRVASFLLQHDADINAQTK (SEQ ID NO: 20) (listed as Homo sapiens)” the “Activity + FIH (relative to synthetic HIF1alphaCAD)” value (FIH [1]) was 168 and the “Hydroxylation of peptide observed” value (FIH [2]) was “Yes”.

For “GABPbeta: fragment of GABPbeta, HASIVEVLLKHGADVNAKDM (SEQ ID NO: 14) (listed as Homo sapiens)”, the “Activity + FIH (relative to synthetic HIF1alphaCAD)” value (FIH [1]) was 107 and the “Hydroxylation of peptide observed” value (FIH [2]) was “Yes”.

With “GST HIF-1α 786-826: glutathione-S-transferase tagged fragment of the HIF transactivation domains (residues 786-826) [reference compound]” the “% activity relative to GST HIF-1α 786-826” value (FIH [1]) was 100%.

For “Gankyrin/p28-II: fragment of Gankyrin/p28-II, RDEIVKALLGKGAQVNAVNQ (SEQ ID NO: 17) (listed as Homo sapiens)”, the “Activity + FIH (relative to synthetic HIF1alphaCAD)” value (FIH [1]) was 116 and the “Hydroxylation of peptide observed” value (FIH [2]) was “Yes”.

With “IkBa 21 mer: fragment of IκB-α, YLGIVELLVSLGADVNAQEPC (SEQ ID NO: 1) (listed as Homo sapiens)” the “Stimulation” value (FIH [1]) was “roughly equivalent to HIF-1α CAD”, the “% activity relative to GST HIF-1α 786-826” value (FIH [1]) was 111% and the “Hydroxylation of peptide observed” value (FIH [2]) was “hydroxylated”.

With “M110: fragment of M110, YTEVLKLLIQAGYDVNIKDY (SEQ ID NO: 19) (listed as Homo sapiens)” the “Activity + FIH (relative to synthetic HIF1alphaCAD)” value (FIH [1]) was 122 and the “Hydroxylation of peptide observed” value (FIH [2]) was “Yes”.

For “Myotrophin: fragment of Myotrophin, QLEILEFLLLKGADINAPDK (SEQ ID NO: 18) (listed as Homo sapiens)”, the “Activity + FIH (relative to synthetic HIF1alphaCAD)” value (FIH [1]) was 154 and the “Hydroxylation of peptide observed” value (FIH [2]) was “Yes”.

In the case of “Tankyrase 1/2: fragment of Tankyrase, NLEVAEYLLEHGADVNAQDK (SEQ ID NO: 15) (listed as Homo sapiens)”, the “Activity + FIH (relative to synthetic HIF1alphaCAD)” value (FIH [1]) is reported as 107 and the “Hydroxylation of peptide observed” value (FIH [2]) is reported as “Yes”.

In the case of “p19-INK-4d: fragment of P19-INK4d, FLDTLKVLVEHGADVNVPDG (SEQ ID NO: 13) (listed as Homo sapiens)”, the “Activity + FIH (relative to synthetic HIF1alphaCAD)” value (FIH [1]) is reported as 124 and the “Hydroxylation of peptide observed” value (FIH [2]) is reported as “Yes”.

For “p105 21 mer: fragment of p105, SLPCLLLLVAAGADVNAQEQK (SEQ ID NO: 2) (listed as Homo sapiens)”, the “Stimulation” value (FIH [1]) was “roughly equivalent to HIF-1α CAD”, the “% activity relative to GST HIF-1α 786-826” value (FIH [1]) was 100% and the “2D-NMR spectra of peptide after incubation with FIH” value (FIH [4]) was “consistent with asparaginyl hydroxylation”.

B1: IkappaB-alpha: recombinant IκB-α protein expressed in Escherichia coli from iκB-α/pGEX-2T construct (protein, UniProt P25963 1-317, looked up)
NF-kappa-B inhibitor alpha: MFQAAERPQEWAMEGPRDGLKKERLLDDRHDSGLDSMKDEEYEQMVKELQEIRLEPQEVPRGSEPWKQQLTEDGDSFLHLAIIHEEKALTMEVIRQVKGDLAFLNFQNNLQQTPLHLAVITNQPEIAEALLGAGCDPELRDFRGNTPLHLACEQGCLASVGVLTQSCTTPHLHSILKATNYNGHTCLHLASIHGYLGIVELLVSLGADVNAQEPCNGRTALHLAVDLQNPDLVSLLLKCGADVNRVTYQGYSPYQLTWGRPSTRIQQQLGQLTLENLQMLPESEDEESYDTESEFTEFTEDELPYDDCVFGGQRLTL
For B1, the “% activity relative to GST HIF-1α 786-826” value (FIH [1]) was 144% and the “Hydroxylation of tryptic fragment (MALDI-TOF)” value (FIH [5]) was “hydroxylation of the fragment”.

B2: p105 ARD: ankyrin repeat domain of p105, amino acid residues 537-809 (SEQ ID NO: 22), GST tag cleaved (protein, listed as Homo sapiens)
chain: TAVQDENGDSVLHLAIIHLHSQLVRDLLEVTSGLISDDIINMRNDLYQTPLHLAVITKQEDVVEDLLRAGADLSLLDRLGNSVLHLAAKEGHDKVLSILLKHKKAALLLDHPNGDGLNAIHLAMMSNSLPCLLLLVAAGADVNAQEQKSGRTALHLAVEHDNISLAGCLLLEGDAHVDSTTYDGTTPLHIAAGRGSTRLAALLKAAGADPLVENFEPLYDLDDSWENAGEDEGVVPGTTPLDMATSWQVFDILNGKPYEPEFTSDDLLAQGDM
In the case of B2, the “% activity relative to GST HIF-1α 786-826” value (FIH [1]) is reported as 164%.

B3: GST p105 ARD: ankyrin repeat domain of p105 (residues 537-809) downstream of glutathione S-transferase (protein)
chain: AVQDENGDSVLHLAIIHLHSQLVRDLLEVTSGLISDDIINMRNDLYQTPLHLAVITKQEDVVEDLLRAGADLSLLDRLGNSVLHLAAKEGHDKVLSILLKHKKAALLLDHPNGDGLNAIHLAMMSNSLPCLLLLVAAGADVNAQEQKSGRTALHLAVEHDNISLAGCLLLEGDAHVDSTTYDGTTPLHIAAGRGSTRLAALLKAAGADPLVENFEPLYDLDDSWENAGEDEGVVPGTTPLDMATSWQVFDILNGKPYEPEFTSDDLLAQGDM
modifications: left off: a dimerising Fc or GST
notes: ankyrin repeat domain of p105 (residues 537-809) downstream of glutathione S-transferase
In the case of B3, the “% activity relative to GST HIF-1α 786-826” value (FIH [1]) is reported as 129%.
